In patent publication US5928915A, “CHO cell sialidase by recombinant DNA technology” (Genentech, Inc., priority 1997, dated 1999):

Target: T1, CHO cell sialidase (Cricetulus griseus, UniProt Q64393)
T1 construct: The sialidase described was purified from the cell culture fluid of a single production cell line (CHO 14.16); endogenous in cells; host or cells: CHO 14.16 cells (purified from the cell culture fluid)
Assay: Sialidase kinetic constants with soluble sialylglycoconjugate substrates
Assay type: biochemical, Chinese hamster
Procedure: Fluorescent sialidase assays: Standard assay conditions for monitoring the enzyme activity during purification using the fluorescent substrate analog are: 1.3 mM 4-MUNeu5Ac, 50 mM phosphate buffer, pH 6.8, 0.3 mg bovine serum albumin and varying amounts of enzyme in a total volume of 30 μl. After addition of enzyme the samples are incubated at 37° C. in a shaking water bath for 5 minutes. The reaction is terminated and the fluorescence of the liberated umbelliferone is enhanced by the addition of 2 ml of 80 mM glycine-carbonate buffer, pH 9.7. Quantification of the product is made by measuring the fluorescence of the samples with excitation at 365 nm and emission at 450 nm using a standard of 4-methyl umbelliferone. A unit of enzyme activity is defined as a μmol/min of sialic acid liberated.
Sialidase assays with natural substrates: When natural substrates are tested with the purified enzyme, the amount of released sialic acid is measured using the thiobarbituric acid assay as modified by Uchida [Uchida et al. J. Biochem., 82:1425 (1977)] using sialic acid as standard. […] All samples are cleared by centrifugation (1,000×G, 10 min) prior to determining the absorbance at 540 nm.
Enzyme kinetic parameters: Assay conditions (time and added enzyme) are modified for each substrate so that initial reaction rates are measured. […]

T1 sequence (Q64393 whole entry): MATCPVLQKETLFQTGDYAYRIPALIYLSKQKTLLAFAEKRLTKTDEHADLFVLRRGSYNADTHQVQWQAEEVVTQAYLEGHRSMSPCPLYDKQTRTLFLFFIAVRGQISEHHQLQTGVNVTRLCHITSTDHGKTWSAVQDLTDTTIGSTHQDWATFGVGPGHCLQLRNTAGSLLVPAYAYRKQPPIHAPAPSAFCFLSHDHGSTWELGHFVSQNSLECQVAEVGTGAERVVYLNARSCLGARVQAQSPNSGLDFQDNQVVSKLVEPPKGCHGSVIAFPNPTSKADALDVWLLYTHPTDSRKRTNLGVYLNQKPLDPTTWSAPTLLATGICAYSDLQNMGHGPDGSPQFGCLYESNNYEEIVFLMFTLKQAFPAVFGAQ

B1: rDeoxyribonuclease 1: encoded by a human-derived nucleotide sequence, was expressed in Chinese hamster ovary cells (protein, UniProt P24855 23-282, looked up)
Deoxyribonuclease-1: LKIAAFNIQTFGETKMSNATLVSYIVQILSRYDIALVQEVRDSHLTAVGKLLDNLNQDAPDTYHYVVSEPLGRNSYKERYLFVYRPDQVSAVDSYYYDDGCEPCGNDTFNREPAIVRFFSRFTEVREFAIVPLHAAPGDAVAEIDALYDVYLDVQEKWGLEDVMLMGDFNAGCSYVRPSQWSSIRLWTSPTFQWLIPDSADTTATPTHCAYDRIVVAGMLLRGAVVPDSALPFNFQAAYGLSDQLAQAISDHYPVEVMLK
For B1, the Vmax (apparent, standard assay conditions, average of duplicates, relative error about 10%) was 12 µmol/min/mg and the “Km values compared (in words)” value (transferrin versus deoxyribonuclease I) was “nearly identical”.
